According to US20170267755A1 (SRI INTERNATIONAL, published 2017):

Target: T1, human mesothelin expressed on the plasma membrane of cells (HeLa, OVCAR-3, SK-OV-3, A1847) (human, UniProt Q13421 296-598)
T1 construct: whole, on cells; GPI-linked cell-surface form on human cell lines and on A1847 spheroid sections and tumors; also called Msln
Assay: flow cytometry on HeLa cells, chemically biotinylated Nb, PE-streptavidin, double-reciprocal fit
Experimental: In specific experimental embodiments, the affinity of the two Nbs, Nb A1 and Nb C6, can determined by flow cytometry using HeLa cells. Binding to HeLa cells can be detected using flow cytometry after incubation with various concentrations of biotinylated Nbs followed by PE-labeled streptavidin. KD values are determined by the equation KD=a *Fₘₐₓ in which “a” is the regression line and Fₘₐₓ is the maximum of fluorescence. […] In addition, the higher affinity and maximum mean fluorescence intensity (MFI) achieved with Nb A1 is consistent with its predominant representation in the phage display output and the larger fluorescence shift seen with flow cytometry.
Briefly, fifty μg of each Nb are biotinylated chemically using the EZ-Link Micro NHSPEO4-Biotinylation Kit. After incubation of mesothelin-positive HeLa cells (5×10⁵) with various concentrations of biotinylated Nbs for one hour at four degrees C. under shaking (nine hundred rpm), Nbs binding is detected by flow cytometry following incubation with (PE)-labeled streptavidin. The KD values are determined by the equation: […]

T1 sequence (Q13421 other isoform, or with tags, fused parts or gaps limits assumed): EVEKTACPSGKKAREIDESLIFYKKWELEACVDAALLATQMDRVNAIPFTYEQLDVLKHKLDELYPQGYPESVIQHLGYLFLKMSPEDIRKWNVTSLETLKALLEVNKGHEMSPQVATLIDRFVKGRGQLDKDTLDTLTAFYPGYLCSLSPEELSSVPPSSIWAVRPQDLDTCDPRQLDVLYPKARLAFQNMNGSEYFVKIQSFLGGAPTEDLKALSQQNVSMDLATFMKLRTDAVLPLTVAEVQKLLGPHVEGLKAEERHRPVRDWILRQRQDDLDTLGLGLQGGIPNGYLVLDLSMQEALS

| Kd [nM] | Binder |
| --- | --- |
| ~15 | Nb A1 (VHH, Llama VHH made in the E. coli periplasm with a C-terminal His tag; also called G3A; G3a; not shown: C-terminal hexahistidine tag) VHH: HPGGSLRLSCAASGIDLSLYRMRWYRQAPGKERDLVALITDDGTSYYEDSVKGRFTITRDNPSNKVFLQMNSLKPEDTAVYYCNAETPLSPVNYWGQ |
| 30 | Nb C6 (VHH, Llama VHH made in the E. coli periplasm with a C-terminal His tag; also called F10; not shown: C-terminal hexahistidine tag) VHH: QAGGSLRLSCAPSGSIFGIRTMDWYRQAPGKERELVARITMDGRVFHADSVKGRFSGSRDGASNAVYLQMNSLKPDDTAVYYCRYSGLTSREDYWGP |
